Laboratory results as given in patent US20260218174.

Experiments:
Test in all cases: cleavage_in_vitro
[1] = system: OMNI-XL-18 (unidentified metagenomic bacterium); settings: TXTL; PAM NGYCCNNN
[2] = system: OMNI-XL-12 (unidentified metagenomic bacterium); settings: TXTL; PAM relaxed NRNNCCNN, strict NRTNCCRN
[3] = system: OMNI-XL-16 (unidentified metagenomic bacterium); settings: TXTL; PAM NARNACVN
[4] = system: OMNI-XL-19 (unidentified metagenomic bacterium); settings: TXTL; PAM NRGNRCNN
Sequence of OMNI-XL-19 (unidentified metagenomic bacterium) (chain, as listed by the source): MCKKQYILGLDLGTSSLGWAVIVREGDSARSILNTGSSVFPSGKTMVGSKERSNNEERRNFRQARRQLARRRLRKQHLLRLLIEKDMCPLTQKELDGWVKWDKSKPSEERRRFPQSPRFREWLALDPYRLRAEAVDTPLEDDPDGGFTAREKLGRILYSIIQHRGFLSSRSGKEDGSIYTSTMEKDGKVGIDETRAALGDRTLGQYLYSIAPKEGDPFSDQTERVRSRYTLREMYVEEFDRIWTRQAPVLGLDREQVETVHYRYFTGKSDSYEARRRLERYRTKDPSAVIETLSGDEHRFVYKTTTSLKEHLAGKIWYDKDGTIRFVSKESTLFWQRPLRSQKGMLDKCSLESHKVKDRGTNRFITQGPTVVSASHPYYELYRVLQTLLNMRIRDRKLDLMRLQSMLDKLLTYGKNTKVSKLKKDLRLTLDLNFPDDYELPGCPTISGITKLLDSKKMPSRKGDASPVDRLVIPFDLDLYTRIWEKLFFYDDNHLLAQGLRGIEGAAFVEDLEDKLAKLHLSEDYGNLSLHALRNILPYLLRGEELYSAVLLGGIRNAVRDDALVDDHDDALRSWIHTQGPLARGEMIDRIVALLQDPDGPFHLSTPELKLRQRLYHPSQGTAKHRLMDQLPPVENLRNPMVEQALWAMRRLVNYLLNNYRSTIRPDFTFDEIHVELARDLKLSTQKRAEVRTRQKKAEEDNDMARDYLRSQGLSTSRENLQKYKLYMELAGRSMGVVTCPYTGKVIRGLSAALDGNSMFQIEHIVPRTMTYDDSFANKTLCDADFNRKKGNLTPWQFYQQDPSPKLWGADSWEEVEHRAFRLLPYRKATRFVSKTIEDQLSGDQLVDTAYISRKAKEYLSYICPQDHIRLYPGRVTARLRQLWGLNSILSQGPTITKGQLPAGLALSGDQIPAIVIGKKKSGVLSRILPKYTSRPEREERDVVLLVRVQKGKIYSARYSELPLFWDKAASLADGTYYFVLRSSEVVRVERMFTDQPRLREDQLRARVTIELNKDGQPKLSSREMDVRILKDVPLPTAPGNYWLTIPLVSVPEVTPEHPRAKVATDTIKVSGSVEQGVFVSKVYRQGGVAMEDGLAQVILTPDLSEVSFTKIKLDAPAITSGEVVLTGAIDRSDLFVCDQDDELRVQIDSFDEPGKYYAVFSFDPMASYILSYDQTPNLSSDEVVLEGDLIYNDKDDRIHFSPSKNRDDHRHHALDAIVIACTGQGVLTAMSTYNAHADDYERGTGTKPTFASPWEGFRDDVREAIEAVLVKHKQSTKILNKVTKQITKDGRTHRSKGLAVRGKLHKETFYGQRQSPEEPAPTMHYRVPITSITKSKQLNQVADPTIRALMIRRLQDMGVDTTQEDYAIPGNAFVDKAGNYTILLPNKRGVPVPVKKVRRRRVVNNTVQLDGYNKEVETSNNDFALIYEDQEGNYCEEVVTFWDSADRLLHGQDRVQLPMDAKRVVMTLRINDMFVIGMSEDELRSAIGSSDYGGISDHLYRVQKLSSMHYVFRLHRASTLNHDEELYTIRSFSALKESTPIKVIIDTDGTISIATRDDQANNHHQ

Sequence of OMNI-XL-18 (unidentified metagenomic bacterium) (chain, as listed by the source): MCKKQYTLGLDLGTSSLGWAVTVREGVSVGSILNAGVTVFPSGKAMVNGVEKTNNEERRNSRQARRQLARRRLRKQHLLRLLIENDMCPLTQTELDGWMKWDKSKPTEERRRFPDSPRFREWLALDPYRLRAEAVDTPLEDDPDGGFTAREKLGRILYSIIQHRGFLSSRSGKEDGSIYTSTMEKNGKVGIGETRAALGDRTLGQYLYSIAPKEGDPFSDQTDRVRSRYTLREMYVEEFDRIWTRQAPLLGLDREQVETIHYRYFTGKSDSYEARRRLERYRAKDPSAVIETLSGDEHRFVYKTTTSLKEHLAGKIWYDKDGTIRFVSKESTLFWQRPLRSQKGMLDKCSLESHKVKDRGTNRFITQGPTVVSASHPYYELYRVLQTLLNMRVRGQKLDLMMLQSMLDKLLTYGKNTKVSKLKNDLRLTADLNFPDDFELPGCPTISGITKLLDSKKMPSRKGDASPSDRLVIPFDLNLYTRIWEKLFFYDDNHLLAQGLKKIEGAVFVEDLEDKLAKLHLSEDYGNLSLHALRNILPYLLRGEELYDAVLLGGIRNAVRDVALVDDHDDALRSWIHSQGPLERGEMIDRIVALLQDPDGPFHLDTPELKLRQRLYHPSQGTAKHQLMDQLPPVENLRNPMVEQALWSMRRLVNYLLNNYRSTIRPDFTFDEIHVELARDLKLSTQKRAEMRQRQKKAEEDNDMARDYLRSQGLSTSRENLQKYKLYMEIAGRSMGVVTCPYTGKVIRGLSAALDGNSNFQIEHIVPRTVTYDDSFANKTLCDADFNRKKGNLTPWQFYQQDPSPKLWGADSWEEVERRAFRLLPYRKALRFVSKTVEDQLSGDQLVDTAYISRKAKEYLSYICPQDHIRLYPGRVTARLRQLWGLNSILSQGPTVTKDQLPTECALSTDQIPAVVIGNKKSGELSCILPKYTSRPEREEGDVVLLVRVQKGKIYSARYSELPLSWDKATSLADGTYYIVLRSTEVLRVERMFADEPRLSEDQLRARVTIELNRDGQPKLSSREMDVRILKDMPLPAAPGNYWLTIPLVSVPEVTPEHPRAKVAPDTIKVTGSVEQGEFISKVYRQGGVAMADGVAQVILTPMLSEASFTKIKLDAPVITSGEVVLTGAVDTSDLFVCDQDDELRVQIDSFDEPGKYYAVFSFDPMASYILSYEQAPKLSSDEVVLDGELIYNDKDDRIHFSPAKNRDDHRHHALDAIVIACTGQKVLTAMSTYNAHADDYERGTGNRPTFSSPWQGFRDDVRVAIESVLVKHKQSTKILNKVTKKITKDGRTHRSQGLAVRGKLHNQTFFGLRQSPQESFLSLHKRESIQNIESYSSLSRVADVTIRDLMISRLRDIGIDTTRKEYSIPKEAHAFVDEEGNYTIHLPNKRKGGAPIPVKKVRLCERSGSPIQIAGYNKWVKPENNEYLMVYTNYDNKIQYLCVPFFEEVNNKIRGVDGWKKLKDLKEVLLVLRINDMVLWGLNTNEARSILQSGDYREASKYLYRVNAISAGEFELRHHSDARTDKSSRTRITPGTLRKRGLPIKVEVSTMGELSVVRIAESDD
Sequence of OMNI-XL-12 (unidentified metagenomic bacterium) (chain, as listed by the source): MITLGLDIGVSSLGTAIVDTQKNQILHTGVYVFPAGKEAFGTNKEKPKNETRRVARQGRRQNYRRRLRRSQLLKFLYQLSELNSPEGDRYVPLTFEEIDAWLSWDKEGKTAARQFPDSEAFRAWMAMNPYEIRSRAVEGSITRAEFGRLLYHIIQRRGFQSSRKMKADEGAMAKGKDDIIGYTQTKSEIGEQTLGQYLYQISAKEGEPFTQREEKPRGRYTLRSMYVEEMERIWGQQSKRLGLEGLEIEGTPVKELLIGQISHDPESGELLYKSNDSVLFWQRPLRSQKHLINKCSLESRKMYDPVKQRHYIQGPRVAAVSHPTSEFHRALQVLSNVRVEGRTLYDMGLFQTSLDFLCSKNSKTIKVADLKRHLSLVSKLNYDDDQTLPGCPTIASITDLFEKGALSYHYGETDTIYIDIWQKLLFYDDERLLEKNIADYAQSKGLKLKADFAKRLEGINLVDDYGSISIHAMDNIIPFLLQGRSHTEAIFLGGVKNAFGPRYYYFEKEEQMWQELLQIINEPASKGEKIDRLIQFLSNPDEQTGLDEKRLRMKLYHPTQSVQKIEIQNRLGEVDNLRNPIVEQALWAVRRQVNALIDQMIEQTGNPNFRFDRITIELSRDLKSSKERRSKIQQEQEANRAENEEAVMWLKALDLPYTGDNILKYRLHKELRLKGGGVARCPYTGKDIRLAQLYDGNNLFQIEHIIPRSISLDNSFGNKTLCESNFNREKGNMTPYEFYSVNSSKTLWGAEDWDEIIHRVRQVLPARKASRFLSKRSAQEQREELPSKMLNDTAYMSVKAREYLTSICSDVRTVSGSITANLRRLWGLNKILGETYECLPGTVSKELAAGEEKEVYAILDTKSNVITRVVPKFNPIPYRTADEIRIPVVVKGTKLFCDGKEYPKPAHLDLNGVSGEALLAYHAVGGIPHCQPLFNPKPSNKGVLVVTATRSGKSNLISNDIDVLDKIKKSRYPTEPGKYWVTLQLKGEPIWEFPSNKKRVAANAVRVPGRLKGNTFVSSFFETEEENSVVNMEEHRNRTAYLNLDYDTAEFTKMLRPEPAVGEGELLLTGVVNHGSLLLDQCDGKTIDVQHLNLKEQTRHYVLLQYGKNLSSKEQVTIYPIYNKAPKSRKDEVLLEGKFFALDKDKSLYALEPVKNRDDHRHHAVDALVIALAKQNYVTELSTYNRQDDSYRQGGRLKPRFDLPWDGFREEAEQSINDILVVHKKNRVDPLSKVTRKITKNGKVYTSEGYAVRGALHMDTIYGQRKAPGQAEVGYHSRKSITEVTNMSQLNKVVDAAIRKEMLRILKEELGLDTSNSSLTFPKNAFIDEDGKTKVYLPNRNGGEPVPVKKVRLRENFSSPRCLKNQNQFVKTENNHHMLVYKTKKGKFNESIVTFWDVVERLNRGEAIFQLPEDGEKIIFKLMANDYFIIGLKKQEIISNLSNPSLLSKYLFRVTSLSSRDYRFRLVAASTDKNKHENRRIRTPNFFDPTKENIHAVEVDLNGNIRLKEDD

Sequence: GGAAGAGCAGAGCCUUGGUCUCGUUGUGGAUUGAUCAGUUUGAAAAAACGAUCUUUUCACAACAAGGCUAUAUGCCGUAGUUGAUUCUACGCUCCCGCUUCGGCGGGAGCUUUUUUU / GGAAGAGCAGAGCCTTGGTCTCNNNNNNNN / NNNNNNNNGAGACCAAGGCTCTGCTCTTCC [OMNI-XL-18 sgRNA V1 T2 ; T2 protospacer 8N PAM library]
- activity (1-depletion score) [1]: 0.97

Sequence: GGAAGAGCAGAGCCUUGGUCUCGUUGUGGAUUGAUUACUUUGAAAAAAGUAAUCUUUUCAUAACAAGGCUAUAUGCCGAAGUUAUUACGGCUCCACUUCGGUGGAGCCUUUUUU / GGAAGAGCAGAGCCTTGGTCTCNNNNNNNN / NNNNNNNNGAGACCAAGGCTCTGCTCTTCC [OMNI-XL-12 sgRNA V1 T2 ; T2 protospacer 8N PAM library]
- activity (1-depletion score) [2]: 0.98

Sequence: GGAAGAGCAGAGCCUUGGUCUCGUUGUGGUUUGAUGUAAUUGAAAAAAUUACAUCUUAUCACAAUAAGGCUAUAUGCCGAAGGAUAAAAUGUCCUAUACUCCUGCUUCGGUAGGAGUUUUUUU / GGAAGAGCAGAGCCTTGGTCTCNNNNNNNN / NNNNNNNNGAGACCAAGGCTCTGCTCTTCC [OMNI-XL-16 sgRNA V1 T2 ; T2 protospacer 8N PAM library]
- activity (1-depletion score) [3]: 0.64

Sequence: GGAAGAGCAGAGCCUUGGUCUCGUUGUGGAUUGAUCAGUUUGAAAAAACGAUCUCUUCACAACAAGGCUAUAUGCCGUAGUUGAUUCUACGCUCCCGCUUCGGCGGGAGCUUUUUUU / GGAAGAGCAGAGCCTTGGTCTCNNNNNNNN / NNNNNNNNGAGACCAAGGCTCTGCTCTTCC [OMNI-XL-18 sgRNA V2 T2 ; T2 protospacer 8N PAM library]
- activity (1-depletion score) [1]: 0.98

Sequence: GGAAGAGCAGAGCCUUGGUCUCGUUGUGGAUUGAUUACUUUGAAAAAAGUAAUCUCUUCAUAACAAGGCUAUAUGCCGAAGUUAUUACGGCUCCACUUCGGUGGAGCCUUUUUU / GGAAGAGCAGAGCCTTGGTCTCNNNNNNNN / NNNNNNNNGAGACCAAGGCTCTGCTCTTCC [OMNI-XL-12 sgRNA V2 T2 ; T2 protospacer 8N PAM library]
- activity (1-depletion score) [2]: 0.97

Sequence: GGAAGAGCAGAGCCUUGGUCUCGUUGUGGAUUGAUCAGUUUGAAAAAACGAUCUUUUCACAACAAGGCUAUAUGCCGUAGUUGAUUCUACGCUCCCGCUUCGGCGGGAGCUUUUUUUU / GGAAGAGCAGAGCCTTGGTCTCNNNNNNNN / NNNNNNNNGAGACCAAGGCTCTGCTCTTCC [OMNI-XL-19 sgRNA V1 T2 ; T2 protospacer 8N PAM library]
- activity (1-depletion score) [4]: 0.94
